Data as given in publication PMC10671326, “In Vivo and In Vitro Characterization of the RNA Binding Capacity of SETD1A (KMT2F)”.
“And” between values parts separate entries of the source, which are not always exact repeats. Equal values may be shown once.

Columns and labels:
[1] = biological target: T1, SETD1A RRM domain (human, UniProt O15047 89-197); experiment: MST; details: EMSA: 2 nM biotinylated RNA, LightShift RNA EMSA kit protocol, 30 min room temperature, 6% native PAGE in 0.5x TBE; MST: 40% MST power, LED 20-40%, buffer and …
[2] = biological target: T1, SETD1A RRM domain; experiment: MST; thermophoresis; EMSA: 2 nM biotinylated RNA, LightShift RNA EMSA kit protocol, 30 min room temperature, 6% native PAGE in 0.5x TBE; MST: 40% MST power, LED 20-40%, buffer and temperature not in material; details: protein: recombinant; tags: His (pET28-MHL vector, HisTrap purified); label: uniformly labeled (MST)
[3] = biological target: T1, SETD1A RRM domain; experiment: MST; T-jump; EMSA: 2 nM biotinylated RNA, LightShift RNA EMSA kit protocol, 30 min room temperature, 6% native PAGE in 0.5x TBE; MST: 40% MST power, LED 20-40%, buffer and temperature not in material; details: protein: recombinant; tags: His (pET28-MHL vector, HisTrap purified); label: uniformly labeled (MST)
[4] = biological target: T1, SETD1A RRM domain; experiment: MST; back diffusion; EMSA: 2 nM biotinylated RNA, LightShift RNA EMSA kit protocol, 30 min room temperature, 6% native PAGE in 0.5x TBE; MST: 40% MST power, LED 20-40%, buffer and temperature not in material; details: protein: recombinant; tags: His (pET28-MHL vector, HisTrap purified); label: uniformly labeled (MST)

T1 sequence (O15047 89-197): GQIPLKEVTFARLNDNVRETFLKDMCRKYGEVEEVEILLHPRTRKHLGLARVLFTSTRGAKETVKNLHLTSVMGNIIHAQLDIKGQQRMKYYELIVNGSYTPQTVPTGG

Row | Molecule | Kd [1] | other results
1 | TP53TG1 | 0.67 µM and 0.69 µM and 1.05 µM | –
2 | SETD1B mRNA (RRM coding region) | 0.31 µM | –
3 | SETD1A mRNA (N-terminal half coding region) | 0.21 µM and 0.06 µM | –
4 | NEAT1_2 (12_13k segment) | 1.52 µM and 1.89 µM and 1.11 µM | –
5 | SNHG8 | 0.87 µM and 2.19 µM and 1.19 µM | –
6 | SCARNA7 | 1.28 µM and 0.31 µM and 1.17 µM | –
7 | AAGAAUGGCCUCGCGGAGGCAUGCGUCAUGCUAGCGUGCGGGGUACUCUU (ssRNA) [Random50 (R50)] | – | Kd [2]: 28.1 µM; Kd [3]: 15.5 µM; Kd [4]: 11.8 µM
